# From the nanobody polyreactivity screen of Harvey et al. (2022)
# Test: yeast display, Sf9 membrane polyspecificity reagent, FACS + sequencing; frameworks hold sequencing errors
# Procedure, shortened: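 A nanobody's polyreactivity label depends on the gate it was sorted from. Yeast display cells were stained with 10% biotinylated, detergent-solubilized Sf9 membrane reagent for 1 hour at 4 °C, enriched on streptavidin microbeads and sorted by FACS. The low and high (top ~1%) gates were set on anti-HA fluorescence for expression and streptavidin fluorescence for reagent binding.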
row,Sequence,polyreactivity (PSR sort gate)
1,QVQLVESGGGLVQAGGSLRLSCAASGSIFSPYAMGWYRQAPGKERELVAAISYGVGNTYYADSVKGRFTISRDNAKNTVYLQMNSLIPEDTAVYYCAAEEYDYVFPHYFTKGYYWGQGTQVTVSS,high polyreactivity
2,QVQLVESGGGLVQAGGSLRLSCAASGIIFPTYDMGWYRQAPGKERELVAAITWSTGSTTYADSVKGRFTISRDNAKNTVYLQMNSQKPEDTAVYYCNKDSEGSGGEFDYWGQGTQVTVSS,low polyreactivity
3,QFQLVESRGGLVKAGGSLRLTCAASGSILYQNTMGWYRQATGKERELVAAISGSGSRTYYADSVKGRFTISRDNAKNTVYLQMNSLKPEDTAVYYCAASGYWPFRSGFGYWGQGTQVTVSS,high polyreactivity
4,QVHLVESGGGLVQAGGSLRLSCAASGRIFSRNAMGWYRQAPGKERELVASITRGGSTYYADSVKGRFTISRDNAKITVYLQMNSLKPEDTAVYYCAAVFYDRGQRYNYWGQGTQVTVSS,high polyreactivity
5,QVQLVESGGGIVQAVGSLRLSCAASGFTLERYAMVWYRPAPGKERELVAAITQSGVSTYYADSVKGRFTISRDNAKNTVYLQMNSLKPEDTAVYYCNALRIYHHYEYDYWGQGTQVTVSS,high polyreactivity
6,QLQLVESGGGLVQAGGSLRLSCAASGSIFKPYALRCYIQAPGKERELVAAITRSGGSTYYADSVKGRFTISRDNAKNTVYLQMNSLKPEDTAVYYCAAGNAPYYRFGSKKYGYWGQGTQVTVSS,high polyreactivity
7,QVQLVESGGGLVQAGGSLRLSCAASGSIFDENAMGWYRQAPGKERELVAAITSTDSTNYADSVKGRFTISRDNAKNTVYLQMNSLKPEDTAVYYCARDIKHATSYEALYYSDYDYWGQGTQVTVSS,low polyreactivity
8,QVQLVESGGGLVQAGGSLRLSCAASGRIFQPNAMGWYRQAPGKERELVAAISSSGGRTYYADSVKGRFTISRDNAKNTVYLQMYSLKPEDSAVYYCNAGGYRYRSYDYWGQGTQVTVSS,high polyreactivity
9,QVQLVESGGGLVQAGGSLRLSCAASGFTFGEYAMGWYRQQPGKERELVAAISSSSGSTYYADSVKGRFTISRDNAKYTVYLQMNSLKPEDTAVYYCAATTSPRSARYYYWGQGTQVTVSS,high polyreactivity
10,QVQLVESGGGLVQAGGSLRLICAASGRTFGVYAMGWYRQAPGKERELVATIRTTGSTNYADSVKGRYTISRDNAKITVYLEMNSLKTEDTAVYYCAARQRQSKYYPYTTFTYDYWGQGTQVSVSS,high polyreactivity
11,QVQLVESGGGLVQAGGSLRLSCAASGSTFRYYALGWYRQAPGKERELVAAINRSGGSTYYADSVKGRFTISRDNAKNTVDLQMNSLKQEETAVYYCAAPWARHYSNPDDYWGQGTQVTVSS,high polyreactivity
12,QVQLVESGGGLVQAGGSLRLSCAASGSIFVYYAMGWYRPAPGKERELVASISRGGTSTYYADSVKGRFTISRDNAKNTVYFQMNSLKPEDTAVYYCAAQPYRTGTYDYWGQGTQVTVSS,low polyreactivity
13,QVQLVESGGGLVQAGGSLRLSCAASGRTLRRNAMGWYRQAPGKERELVAAITWSGTSTYYADSVKGRFTISRDNAKNTVDLQMNSLKPEDTAVYYCAAEVAYTDTEYFWYYYWGQGTQVTVSS,high polyreactivity
14,QVQLVESGGGLVQAGGSLRLSCAASGLTFRAYAMGWYRLAPGKERELVAAITWSGTRTYYADSVKGRFTISRDNAKNTVYLQMNSLKPEDTAVYYCARGHTKVKYDYWGQGTQVTVSS,low polyreactivity
15,QVQLVESGGGLVQAGGSLRLSCAASGFIFYGNAMGWYRQAPGKERELVAAITRRGGRTYYADSVKGRFTISRDNAKNTVYLQMNSLKPEDTAVYYCAKDRGRSLEMDYWGQGTQVTVSS,high polyreactivity
16,QVQLVESGGGLVQAGGSLRLSCAASGRIFSFNAMGCYRQATGKERELVAAISWSTGSTFYADSVKGRFTISRDYAKNTVFLQMNSLKPEDTAVYYCAREYYYRRGFFLRGYWGQGTQVTVSS,high polyreactivity
17,QVQLVESGGGLVQAGGSLRLSCAASGSTFYVNTMGWYRQAPGKERELVAAITATGASTYYADSVKGRFTISRDNAKNTVYLQMNSLKPEDTAVYYCNVRLRIRSGYWGQGTQVTVSS,high polyreactivity
18,QVQLVESGGGLVQAGGSLRLSCAASGINFCWYAMGWYRQAPGKERELVAAISGTGGSTYYADSVKGRFTISRDNAKNTVYLQMNSLKPEDTAVYYCAARGKSSSYYDYDYCGQGTQVTVSS,low polyreactivity
19,LVQLQESGGGLVQAGGSLRLSCAASGTISPGGYMGWYRQAPGKERELVASINVGGSTNYADSVKGRFTISRDNAKNTVYLQMKSLKPEDNAVYYCAVWGRNRLQLSYWGQGTQVTVSS,low polyreactivity
20,QVQLVESGGGLDHAGGRLRLSCAASGSIFYENVMGWYRQAPGKERELVAGISRSGGRTYYADSVKGSFTISRDYAKNTVYLQMNSLQPVDTAVYYCAALTPRNRYRKFDYWGQGTQVTVSS,high polyreactivity
21,QVQLVDSGGGLVQAGGSLRLTCAASGRTFYGNAMGWYRQAPGKERELVATINYSGGSTYYADSVKGRFTISRDNAKNTVYLQMNSLKPEDTAVYYCAADDPEEFDYWGQGTQVTVSS,low polyreactivity
22,QVQLVESGGGLVQAGGSLRLSCAASGRTFRPYAMGWYRQAPGKERQFVAAISSSGGSTYYADSVKGRFSISRDNAKNTVYLLMNSLKPEDTAVYYCATGRKNAAQRWGYYYWGQGTQVTVSS,high polyreactivity

row,Sequence,polyreactivity (PSR sort gate)
1,QVQLVESGGGLVQAGGSLRLSCAASGRIFGRYAMGWYRQAPGKERELVAAITRSGGNTYYADSVKGRFTISRDNAKNTVYLQMNSLKPEDTAVYYCAVRQLDRRSPKYNYWGQGTQVTVSS,high polyreactivity
2,QVQLVESGGGLVQAGGSLRLSCAASGSTFFWYAMGWYRQEPGKERELVAAINWRGDRTYYADSVKGRFTISRDNAKNTVYLQMNSLKPEDTAVYYCNAVRVHAYSTGEYGYWGQGTQVTVSS,high polyreactivity
3,QVQLVESGGCLVQAGGSLRLSSAASGFTFDKYAMGWYRQAPGKEMELVAAISGSGGTTYYADSVKGRFTISRDNAKNTVYLQMNSLKPEDTAVYYCATRLYSIYSYGYWGQGTQVTVSS,high polyreactivity
4,QVQIVESGGALVQAGCSLRLSCAASGSTFWYYVMGWYRQAPGKERELVAAISIVGSTYYADSVKGRFTLSRDNAKNTVYLQMNSLKPEDTAVYYCAADIYQYGYDYWGQGTQVTVSS,low polyreactivity
5,QVQLVESGGGLVQAGGSLRLSCAACGRTFQWYPMGGFRQAPGTERELVAAISWSGTSTYYADSVKGRFTISRDNAKHTVYLQMNSLKPEDTAVYYCNKPCDVWDHDYDYWGQGTQVTVST,low polyreactivity
6,QVQLVESGGGLVQAGGSLRLSCAASGRTFIVNTMGRYRQAPGKERELVAAITARGGRTYYADSVKGRFTISRDNAKNTVYLQMNSLKPEDTAVYYCNARTPPREAERYYWGLGTQVTVSS,low polyreactivity
7,QVQLVESGGGLVQAGGSLRLSCAASGRTFYYYAMGWYRQAPGKERELVASISRRGGSTYYADSVKGRFTISRDNAKNTVYLQMNSLKPEDTAVYYCAASHYHGYSLGYDYWGQGTQVTVSS,high polyreactivity
8,QVQLVESGGGLVQAGGSLRLSCADYGIIFSPYAMGWYRQAPGKERELVAAISYSGGSTYYADSVKGRFTISRDNAKNTVKLQMNSLKPEDTAVYYCAVVYSYYLAVLGYWDYDYWGQGTQVTVSS,low polyreactivity
9,QVQLVESGGGLVQAGGSLRLSCAASGSIFGSNAMGWYIQAPGKERELVAAITWSDGSTYYADSVKGRFTISRDNAKNTVYLQMNSLKPEDTAVYYCAADSWWGIYYSGYDYWGQGTQVTVSS,low polyreactivity
10,QVQLVESGGGLVQAGGSLRLSCAASGFIGIYAMGWYRQAPGKERELVAAITTSGGRTYYADSVKGRFTISRDNAKNTVYLQMNSLKPEDTAVYYCAADYQAYTAEDKVIVWYDYWGQGTQVTVSS,low polyreactivity
11,QVQLVESGGGLVQAGGSLRLSCAASGFIFSGYAMGWYRQAPGKERELVAAIRWSTGSTYYADSVKGRFTISRDNAKNTVYLQMNSLKPEDTAVYYCNAYRYQWAQSTEYDYWGQGTQVTVSS,high polyreactivity
12,QVQLVESGGGLVLAGGSLSLSCAASGSIFNWYAMGWYRKAHGKERELVAAISWRGGSTYYADSVKGRFTISRDNAINSVYFQMNSLKPEDTAVYYCASDGGGDHMDYWGQGTQVSVSS,high polyreactivity
13,QVQLVESGGGLVQAGGSLRLSCAASGIIFQFYAMVWYRQAPGKERELVAAISRSGGITHYADSVKGRFTISRDNAKNTVYLQMNILKPEDTAVYYCATRGTRSYFRTFYYWGQGTQVTVSS,high polyreactivity
14,QVQLVESGGGLVQAGGSLRLSCDASGSTFVHYAMGWYRQAPGKERQLVAAISSSGDSTYYADSVKGRFTISRDNAKNTVYLKMNSLKPEDTAVYYCAVRSRTPRAYYYWGQGTQVTVSS,low polyreactivity
15,QVQLVESGGGLVQAGGSLRLSCAASGITFGVNTMGWYRQAPGKERELVAAITWRGGSTYYADSVKGRFTISRDNAKNTVYLQMNSLKPEDTAVYYCAAQPIWPGGQELDYWGQGTQVTVSS,low polyreactivity
16,PVQLVESGGGLVQAGGSLRLSCAASGIIFYRNAMAWYRQAPGKERELVAAITSSGGRTYYAYSVKGRFTISRDNAKNTVYLQMNRLKPEDTAVYYCAATRLYWKIFYGDGDYWGQGTQVTVSS,high polyreactivity
17,QVQLVESGGGLVQAGGSLRLSCAASGYIFGSNAMGWYRQAPGKDRELVAGISNNGGSTYYADSVKGRFTISRDKAKNTVYLQMNSLKPEDTAVYYCARDPNDDNSFPYDYWGQGTQVTVSS,low polyreactivity
18,QVQLVESGGGLVQAGGSLGLSCAASGSTLYGNAMGWYRQAPGKERELVAAINTGGSTNYADSVKGRFTISRDNAKNTVYVQMNSLKPEDTAVYYCAADYEWDATHDYWGQGTQVTVSS,low polyreactivity
19,QVQLVESGGGLVQAGGSLRLSCAASGFIFDFYTMGWYRQAPGKERELVAAITNAGSTYYADSVKGRFTISRDNAMNTFYLHMNSLKPEDTAVYYCAAYYRSRHHGYDSWGQGTQVTVSS,low polyreactivity
20,QVHLVESGGGLVQAGGSLRLSCAASGFTFRDYAMGWYRQAPGKERELVAAIDIGTTTYYADSVKGRFTISRDNAKNTVYLQMNSLKPEDTAVYYCAAYSFASVYFGTGYDYWGQGTQVTVSS,low polyreactivity
21,QVQLVESGGCLVQAGGSLRLSCAASGRTFSIYAMGWYRQAPGKEWELVASINGSGGSTYYADSVKGRFTISRDIAMNTVYLQMNSLKPEDTAVYYCAARASPRFNYWGQGSQVTVSS,high polyreactivity
